Reference: patent US20180086841A1

Legend:
[1] = biological target: Macaca mulatta CD27 (mmCD27) (Macaca mulatta (rhesus) / Macaca fascicularis (cynomolgus)); test: cell-based or functional assay
[2] = biological target: human CD27 (A59T) (human) (UniProt P26842); test: cell-based or functional assay
[3] = biological target: human CD27 (human) (UniProt P26842); test: cell-based or functional assay
[4] = biological target: Macaca mulatta CD27 (mmCD27) (Macaca mulatta (rhesus) / Macaca fascicularis (cynomolgus)); test: cell ELISA on CD27-transfected CHOK1 cells, n=2
[5] = biological target: human CD27 (A59T) (human) (UniProt P26842); test: cell ELISA on CD27-transfected CHOK1 cells, n=2
[6] = biological target: human CD27 (human) (UniProt P26842); test: cell ELISA on CD27-transfected CHOK1 cells, n=2
[7] = biological target: D32A; test: flow cytometry on CHO-K1 transfectants, left sub-column
[8] = biological target: D43A; test: as above
[9] = biological target: E9A; test: as above
[10] = biological target: F28A; test: as above
[11] = biological target: G16A; test: as above
[12] = biological target: G89A; test: as above
[13] = biological target: H36A; test: as above
[14] = biological target: H60A; test: as above
[15] = biological target: I46A; test: as above
[16] = biological target: K17A; test: as above
[17] = biological target: K31A; test: as above
[18] = biological target: K38A; test: as above
[19] = biological target: N88A; test: as above
[20] = biological target: P44A; test: as above
[21] = biological target: P8A; test: as above
[22] = biological target: Q15A; test: as above
[23] = biological target: Q41A; test: as above
[24] = biological target: Q91A; test: as above
[25] = biological target: R10A; test: as above
[26] = biological target: R37A; test: as above
[27] = biological target: R93A; test: as above
[28] = biological target: S63A; test: as above
[29] = biological target: V30A; test: as above
[30] = biological target: V49A; test: as above
[31] = biological target: W13A; test: as above
[32] = biological target: human CD27 (human) (UniProt P26842); test: flow cytometry MFI, CD4+ T cells in human peripheral blood, n=4
[33] = biological target: human CD27 (human) (UniProt P26842); test: flow cytometry MFI, CD8+ T cells in human peripheral blood, n=4
[34] = biological target: D32A; test: flow cytometry on CHO-K1 transfectants, right sub-column
[35] = biological target: D43A; test: as above
[36] = biological target: H60A; test: as above
[37] = biological target: K38A; test: as above
[38] = biological target: P44A; test: as above
[39] = biological target: P8A; test: as above
[40] = biological target: Q91A; test: as above
[41] = biological target: R10A; test: as above
[42] = biological target: R37A; test: as above
[43] = biological target: R93A; test: as above
[44] = biological target: V30A; test: as above
[45] = biological target: V49A; test: as above
[46] = biological target: Macaca mulatta CD27 (mmCD27) (Macaca mulatta (rhesus) / Macaca fascicularis (cynomolgus)); test: flow cytometry MFI, CD8+ T cells in rhesus peripheral blood, n=4
[47] = biological target: human CD27 (human) (UniProt P26842); test: competition cell ELISA on CHO-hCD27; competitor detected: mouse hCD27.15 at 1 µg/ml
[48] = biological target: R87A; test: flow cytometry on CHO-K1 transfectants, left sub-column, cell hatched (loss of binding)
[49] = biological target: W90A; test: as above
[50] = biological target: R87A; test: flow cytometry on CHO-K1 transfectants, right sub-column, cell hatched (loss of binding)
[51] = biological target: W90A; test: as above

Sequence of 1F5-hIgG1 (antibody) (VH): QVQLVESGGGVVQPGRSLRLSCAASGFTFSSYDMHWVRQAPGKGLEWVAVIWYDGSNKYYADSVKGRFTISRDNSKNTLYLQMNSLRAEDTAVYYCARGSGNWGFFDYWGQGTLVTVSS
Sequence of 1F5-hIgG1 (antibody) (VL): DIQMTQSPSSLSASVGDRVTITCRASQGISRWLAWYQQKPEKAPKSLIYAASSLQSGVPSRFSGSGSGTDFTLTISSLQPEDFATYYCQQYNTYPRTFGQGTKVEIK
Sequence of R93A (receptor chain, as listed by the source R93A R93A limits assumed): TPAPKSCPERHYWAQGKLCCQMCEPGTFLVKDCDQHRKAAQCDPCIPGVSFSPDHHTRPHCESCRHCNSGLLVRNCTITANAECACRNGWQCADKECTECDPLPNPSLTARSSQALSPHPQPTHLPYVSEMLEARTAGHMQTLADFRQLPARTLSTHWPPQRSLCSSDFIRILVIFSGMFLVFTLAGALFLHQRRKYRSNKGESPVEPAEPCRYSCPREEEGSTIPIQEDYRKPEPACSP
Sequence of Q91A (receptor chain, as listed by the source Q91A Q91A limits assumed): as the sequence (receptor chain, as listed by the source R93A R93A limits assumed) above, with Q91A, A93R counted along it
Sequence of R37A (receptor chain, as listed by the source R37A R37A limits assumed): as the sequence (receptor chain, as listed by the source R93A R93A limits assumed) above, with R37A, A93R counted along it
Sequence of V30A (receptor chain, as listed by the source V30A V30A limits assumed): as the sequence (receptor chain, as listed by the source R93A R93A limits assumed) above, with V30A, A93R counted along it
Sequence of R87A (receptor chain, as listed by the source R87A R87A limits assumed): as the sequence (receptor chain, as listed by the source R93A R93A limits assumed) above, with R87A, A93R counted along it
Sequence of R10A (receptor chain, as listed by the source R10A R10A limits assumed): as the sequence (receptor chain, as listed by the source R93A R93A limits assumed) above, with R10A, A93R counted along it
Sequence of W90A (receptor chain, as listed by the source W90A W90A limits assumed): as the sequence (receptor chain, as listed by the source R93A R93A limits assumed) above, with W90A, A93R counted along it
Sequence of V49A (receptor chain, as listed by the source V49A V49A limits assumed): as the sequence (receptor chain, as listed by the source R93A R93A limits assumed) above, with V49A, A93R counted along it
Sequence of P8A (receptor chain, as listed by the source limits assumed): as the sequence (receptor chain, as listed by the source R93A R93A limits assumed) above, with P8A, A93R counted along it
Sequence of P44A (receptor chain, as listed by the source P44A P44A limits assumed): as the sequence (receptor chain, as listed by the source R93A R93A limits assumed) above, with P44A, A93R counted along it
Sequence of H60A (receptor chain, as listed by the source H60A H60A limits assumed): as the sequence (receptor chain, as listed by the source R93A R93A limits assumed) above, with H60A, A93R counted along it
Sequence of K38A (receptor chain, as listed by the source K38A K38A limits assumed): as the sequence (receptor chain, as listed by the source R93A R93A limits assumed) above, with K38A, A93R counted along it
Sequence of D43A (receptor chain, as listed by the source D43A D43A limits assumed): as the sequence (receptor chain, as listed by the source R93A R93A limits assumed) above, with D43A, A93R counted along it
Sequence of D32A (receptor chain, as listed by the source D32A D32A limits assumed): as the sequence (receptor chain, as listed by the source R93A R93A limits assumed) above, with D32A, A93R counted along it
Sequence of H36A (receptor chain, as listed by the source H36A H36A limits assumed): as the sequence (receptor chain, as listed by the source R93A R93A limits assumed) above, with H36A, A93R counted along it
Sequence of Q15A (receptor chain, as listed by the source Q15A Q15A limits assumed): as the sequence (receptor chain, as listed by the source R93A R93A limits assumed) above, with Q15A, A93R counted along it
Sequence of N88A (receptor chain, as listed by the source N88A N88A limits assumed): as the sequence (receptor chain, as listed by the source R93A R93A limits assumed) above, with N88A, A93R counted along it
Sequence of E9A (receptor chain, as listed by the source limits assumed): as the sequence (receptor chain, as listed by the source R93A R93A limits assumed) above, with E9A, A93R counted along it

In the case of 1F5-hIgG1 (antibody), the NF-κB-luciferase reporter assay, Emax [1] is reported as 1.33 fold change, the NF-κB-luciferase reporter assay, Emax [2] is reported as 1.3 fold change and the NF-κB-luciferase reporter assay, Emax [3] is reported as 1.48 fold change. For the same substance, the EC50 [4] was 0.193 nM, the EC50 [5] was 0.326 nM and the EC50 [6] was 0.325 nM. For the same substance, the binding, WT hCD27 = 100 (GM FITC) [7] was 115%, the binding, WT hCD27 = 100 (GM FITC) [8] was 202% and the binding, WT hCD27 = 100 (GM FITC) [9] was 95.4%. It also gave a binding, WT hCD27 = 100 (GM FITC) [10] of 113%, a binding, WT hCD27 = 100 (GM FITC) [11] of 96% and a binding, WT hCD27 = 100 (GM FITC) [12] of 103%. For the same substance, the binding, WT hCD27 = 100 (GM FITC) [13] was 116%, the binding, WT hCD27 = 100 (GM FITC) [14] was 176% and the binding, WT hCD27 = 100 (GM FITC) [15] was 128%. The binding, WT hCD27 = 100 (GM FITC) [16] was 95.1%, the binding, WT hCD27 = 100 (GM FITC) [17] was 205% and the binding, WT hCD27 = 100 (GM FITC) [18] was 96.5%. The binding, WT hCD27 = 100 (GM FITC) [19] was 153%, the binding, WT hCD27 = 100 (GM FITC) [20] was 150% and the binding, WT hCD27 = 100 (GM FITC) [21] was 82.5%. For the same substance, the binding, WT hCD27 = 100 (GM FITC) [22] was 99%, the binding, WT hCD27 = 100 (GM FITC) [23] was 104% and the binding, WT hCD27 = 100 (GM FITC) [24] was 156%. For the same substance, the binding, WT hCD27 = 100 (GM FITC) [25] was 105%, the binding, WT hCD27 = 100 (GM FITC) [26] was 109% and the binding, WT hCD27 = 100 (GM FITC) [27] was 120%. It also gave a binding, WT hCD27 = 100 (GM FITC) [28] of 144%, a binding, WT hCD27 = 100 (GM FITC) [29] of 171% and a binding, WT hCD27 = 100 (GM FITC) [30] of 143%. It also gave a binding, WT hCD27 = 100 (GM FITC) [31] of 89.5%, an EC50 [32] of 1.54 nM and an EC50 [33] of 1.3 nM. The binding, WT hCD27 = 100 (GM FITC) [34] was 59.6%, the binding, WT hCD27 = 100 (GM FITC) [35] was 86.1% and the binding, WT hCD27 = 100 (GM FITC) [36] was 110%. For the same substance, the binding, WT hCD27 = 100 (GM FITC) [37] was 94.2%, the binding, WT hCD27 = 100 (GM FITC) [38] was 83.7% and the binding, WT hCD27 = 100 (GM FITC) [39] was 73.1%. It also gave a binding, WT hCD27 = 100 (GM FITC) [40] of 115%, a binding, WT hCD27 = 100 (GM FITC) [41] of 113% and a binding, WT hCD27 = 100 (GM FITC) [42] of 88%. The binding, WT hCD27 = 100 (GM FITC) [43] was 85.5%, the binding, WT hCD27 = 100 (GM FITC) [44] was 88.9% and the binding, WT hCD27 = 100 (GM FITC) [45] was 92.8%. The EC50 [46] was 1.92 nM, the IC50 (read off the curve) [47] was 4 nM and the binding, WT hCD27 = 100 (GM FITC) [48] was 40.8%. The binding, WT hCD27 = 100 (GM FITC) [49] was 42.5%, the binding, WT hCD27 = 100 (GM FITC) [50] was 7.8% and the binding, WT hCD27 = 100 (GM FITC) [51] was 10%.
